Experiment: yeast display, Sf9 membrane polyspecificity reagent, FACS + sequencing; frameworks hold sequencing errors
Summary of the method: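 Nanobodies from a synthetic yeast display library (Saccharomyces cerevisiae BJ5465), induced 36–48 hours with galactose, were stained 1 hour at 4 °C with 10% biotinylated, detergent-solubilized Sf9 membrane reagent, enriched on streptavidin microbeads, then FACS-sorted. Anti-HA (expression) and streptavidin (reagent binding) fluorescence set low and high (top ~1%) gates. Polyreactivity labels come from the gate of origin. Genes were colony-PCR amplified, MiSeq 2 × 250 sequenced and filtered by CDR length.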

| Sequence | polyreactivity (PSR sort gate) |
| --- | --- |
| QVQLVESGGGLVQAGGSLRLSCAASGFIFLYYAMGWYRQAPGKERELVADSSRGADTKYADSVKGRFTISRDNAKNNVYLQMNSLKPVDTAVYYCAARTGWPRVGFQFPAHVGFDYWGQGTQVTVSS | low polyreactivity |
| QDQLVESGGGLVQAGGSLRLSCAASGIIFEYYAMGWYRQAPGKEREFVASITSSDGSTYYADSVKGRFTISRDNAKNTVYLQMNILKPEDTAVYYCAAAGDYVVPISSTAGFGGDYWGQGTQVTVSS | low polyreactivity |
| QVQLVESGGGLVQAGGSLRLSCAASGSIFAAYTMGWYRQAPGKERELVATISSGGSTYYADSVKGRFTISRDNAKNTVYLQMNSLKPEDTAVYYCAAVIGNWQYQYYYWGQGTQVTVSS | low polyreactivity |
| QVQLVESGGGLVQAGGSLRLSCAASGRTFIAYAMGWYRQAPGKERELVAAITSSGGSTYYADSVKGRFTISRDNAKNTVYLQMNSLKPEDTAVYYCATDIYESPYFYYSYYYWGQGTQVTVSS | low polyreactivity |
| QVKLVESAGGLVQAGGSLRLSCPASGRTFYRYVMGWSRQEPGKERELVAAITPGGSTYADSVKGRFTISRDNAKNTVYLQMNSLKPEDTAVYYCNKRKASSSGYNYWGQGTQVTVSS | low polyreactivity |
| QVQLVESGGGLVQAGGSLRLSCAASGFTFGRNAMGWYRQAPGTERELVARITTGGSTNYADSVKGRFTISRDNAKYTVYLQLNSLKPEDTAVYYCAATYVSLALFWTYGYWGQGTQVTVSS | low polyreactivity |
| QVPLVESGGGLVQAGGILRLSCAASGRIFLPYAMGWYRQAPGQERELVAAITSSDGSTHYADSVKGRFTISRDNAQNTVYLQMNSLKPEDTAVYYCNAARATYYYYLDDYWGQGTQVTVSS | low polyreactivity |
| QVQLVESGGGLVQAGGSLRLSCAASGFIFDYYAMGWYRQAPGKERELVAAISGRGGSTYYADSVKGRFTISRDNAKNTVYLQMNSLKPEDTAVYYCAKGVERYTYGSYWYDYWGQGTQVTVSS | high polyreactivity |
| QVQLVESVGGLVQAGGSLRLSCAASGSIFDSNAMGWYRQAPGKVRELVASITSSGGSTYYADSVKGRFTISRDNAKKTVYLQMNSLKPEDTAVYYCAAKQAQRRYRQWSTSGYWGQGTQVTVSS | high polyreactivity |
| QVQLVESGGGLVQAGGSLRLSCAASGSIFGSYAMGWYRQAPGKERELVAAITSAGSTNYADSVKGRFTISRDNAKNTVYLQMNSLKPEDTAVYYCAVRPGFGRSLWYGYWGQGTQVTVSS | low polyreactivity |
| QVQLEESGGGLVQAGGSLRLSCAASGIIIKYYAMGWYSQAPGKESELVAAISSSGGKTYYADSVKGRFTISRDNAKNTVYLQMKSLKPEDTGVDYCAAQRYVRYKYDYWGQGTQVTVSS | high polyreactivity |
| QVQLVESGGGLVQAGGSLRLSCAASGRTFANNVMGWYRQAPGKEREFVAAISRSGGITYYADSVKGRFTISRDNAKNTVYLQMNSLKPEDTAVYYCNAEWPFIYRLYRVQHGNDYWGQGTQVTVSS | low polyreactivity |
| QVQLVESGGGLVQAGGSLRLSCAASGRIFYAYTMGWYRQAPGKERELVAAISGSGSTYYADSVKGRFTISRDNAKNNVYLQMNSLKPEDTAVYYCAKRYRFHFWGQGTQVTVSS | low polyreactivity |
| QVQLVETGGGLVQAGGILRLSCAASGSTFGYNAMGWYRQAPGKERELVASITWSSGSTYYADSVKGRFTISRDNAKNTVYLQMNSLKPEDSAVYYCYAKRFRHYGGYYYWGQGTQVTVSS | low polyreactivity |
| QVQLVESGGGLVQAGGSLRLSCAASGFIFQPYVMGWYRQAPGKERELVAAISWNGVSTYYADSVKGRFTISRDNAKNTVYLQMNSLKPEDTAVYYCAASYRYVPGLNYWGQGTQVTVSS | low polyreactivity |
| QVQLVESGGGLVQAGGSLRLSCAASGSIFLQYAMGWYRQAPGKERELVAAISWSGGSTYYADSVKGRFTISRDNAKNTVYVQMNSLKPEDTAVYYCAAPITPYRHYRMDYWGQGTQVTVSS | low polyreactivity |

| Sequence | polyreactivity (PSR sort gate) |
| --- | --- |
| QVQLVESGGGLVQAGGSLRLSCAASGITFYGYTMGWYRQAPGKERELVAAITSGGNTYYADSVKGRFTISRDNAKNPVYLQMNCLKPEDTAVYYCAARRYCYTSITWCDYWRQGTQVTVSS | high polyreactivity |
| QVQLVESGGGLVQAGGSLRLSCAASGIILATYAMGLYRQAPGKEMELVAAISWSGGRTYYADSVKGRFTISRDKAKNTVYLQMNSLKPEDTAVYYCNAAYPAYGRTQYGRYDYWGQGTQVTVSS | high polyreactivity |
| QDQLVESGGGLVQAGGSLRLSCAASVSIFGVNVMGWYRQAPGKERELVAAITSIGGRTYYADSVKGRFTISRDNAKITVYLQMNSLKPEETAVYYCNADYTGAEYDYWGQGTQVTVSS | low polyreactivity |
| QVQLVESGGGLVQAGGSLRLSCAASGRIFRYNAMGWYRQAPGKERELVAAISWSGGSTYADSVKGRFTISRDNAKNTVYLQMNSLKPEDTAVYYCAADSSDLYVWGYDHWGQGTQVTVSS | low polyreactivity |
| QVQLVESGGGLVQAGGSLRLSCAASGIIFRSYAMGWYRQAPGKERELVAAITSGGSTNYADSVKGRFTISRDNAKNTVYLQMHSLKPEDTAVYYCAARWPWYGKLRYYYWGQGTQVTVSS | high polyreactivity |
| QVQLVESGGGLVQAGGSLRLSCAASGSTFYQYAMGWYRQSPGKERELVAAISGISGSTSYADSVKGRFTISRDNAKNTVYLQMNSLKPEDTAVYYCAKGTAPIPYRGRVGTSKSDYWGQGTQVTVSS | low polyreactivity |
| QVQLVESGGGLVQAGGSLRLSCAASGRTFGINAMGWYRQAPGKERELVAVISGSGGNTYYADSVKGRFTISRDNEKNTVYLQMNSLKPEDTAVYYCATRYEKFRYDYWGQGTQVTVSS | low polyreactivity |
| QVQLVESGGGLVQAGGSLRLSCAASGIFASYAMGWYRQAPGKERELVAAIRSSGGRTYYADSVKGRFTISRDNAKNTFYLQMNSLKPEDTAVYYCAARYYTYDGYSKYDFWGQGTQVTVSS | high polyreactivity |
| QVQLVESGGGLVQAGGSLRLSCAASGRTFYYARGWYRQAPGKERELVAAITSSSSTYSADSVKGRFTISRDNAKNTVYLQMNSLKPEDTAVYYCNAADDPYGSPSYGYDYWGQGTQVTVSS | low polyreactivity |
| QVQLVESGGCLVQAGGSLRLSCAASGRIFYGNTMGCYRQAPGKESELVATITRSGGSTYYADSVKGRFTISRDNAKNTVYLQMNNLKPEDTAVYYCAVGYWRLFPYGYWGQGTQVTVSS | high polyreactivity |
| QVQLVESGGGLVQAGGSLRLSCAASGRIFTIYAMGWYRQEPGKERELVAAITRGGNTNYADSVKGRFTISRDNAKNTVYLLMNSLKPEDTAVYYCAARANVYTKKRDYWGQGTQVTVSS | high polyreactivity |
| QVQLVESGGGLVQAGGSLRLSCAASGSIFYYNAMGWYRPAPGKERELVADISTSGSTYYADSVKGRFTISRDNAKNTVYLQMNSLKPEDTAVYYCNADYLPQEGEFSYPYDYWGQGTQVTVSS | low polyreactivity |
| QVQLVESGGGLVQAGGSRRLSCAASGFTFHYYAMGWYRQAPGKERELVAVITSGGSTTYADSVKGRFTISRDNAKNTVYLQMNSLKPEDTAVYYCATDNPFLWWFRPDQHGMGYWGQGTQVTVSS | low polyreactivity |
| QVQLVESGGGLVQAGGSLRLICAASGFTFASNDMGWYRQAPGKERELVAAITKGGGRTYYADSVKGRFTISRDNAKNTVYFQMNSLKPEETAVYYCAGRQLIKYDYWGQGTQVTVSS | low polyreactivity |
| QVQLVESGGGLVQAAGSLRLSCAASGRTFKVYAMGWYRQAPGKERELVAAITWRGGRTYYADSVKGRFTISSDNAKNTVYLQMNSLKPEDTAVYDCAADLYYLTHDYWGQGTQVTVSS | high polyreactivity |
| QVQLVESGGGLVQAGGSLRLSCAASGSIFFGNAMGWYRQATGKERELVAAITRRGGSTYYADSVKGRFTISRDNAKNTVYLQMNSLKPEDTAVYYCNAVSKRYGYGYWGQGTQVTVSS | high polyreactivity |

— the nanobody polyreactivity screen of Harvey et al. (2022)
